Test results as given in publication PMC12319226 (Frontiers in Bioinformatics, 2025).

How the values were obtained:
Test in all cases: BLI
Conditions in all cases: both partners purified
fHbp m001099 = target: T1, fHbp m001099 (Neisseria meningitidis fHbp v3.28-based …, point mutant)
T1 chain: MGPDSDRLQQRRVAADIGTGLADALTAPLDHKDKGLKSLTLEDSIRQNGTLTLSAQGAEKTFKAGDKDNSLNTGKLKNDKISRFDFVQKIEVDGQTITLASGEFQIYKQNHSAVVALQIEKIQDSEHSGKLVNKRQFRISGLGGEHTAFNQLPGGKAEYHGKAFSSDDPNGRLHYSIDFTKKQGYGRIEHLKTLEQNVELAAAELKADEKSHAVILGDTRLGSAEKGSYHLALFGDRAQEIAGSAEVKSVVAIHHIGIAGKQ

fHbp m001207 = target: T2, fHbp m001207 (Neisseria meningitidis fHbp v3.28-based …, point mutant)
T2 chain: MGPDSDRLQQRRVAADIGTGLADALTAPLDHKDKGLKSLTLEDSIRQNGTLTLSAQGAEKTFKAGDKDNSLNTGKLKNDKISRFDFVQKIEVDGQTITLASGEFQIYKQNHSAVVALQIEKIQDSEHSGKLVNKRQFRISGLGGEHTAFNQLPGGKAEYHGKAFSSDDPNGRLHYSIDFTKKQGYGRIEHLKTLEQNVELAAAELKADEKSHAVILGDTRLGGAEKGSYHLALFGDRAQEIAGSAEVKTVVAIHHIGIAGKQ

fHbp m001688 = target: T3, fHbp m001688 (Neisseria meningitidis, engineered fHbp …, point mutant)
T3 chain: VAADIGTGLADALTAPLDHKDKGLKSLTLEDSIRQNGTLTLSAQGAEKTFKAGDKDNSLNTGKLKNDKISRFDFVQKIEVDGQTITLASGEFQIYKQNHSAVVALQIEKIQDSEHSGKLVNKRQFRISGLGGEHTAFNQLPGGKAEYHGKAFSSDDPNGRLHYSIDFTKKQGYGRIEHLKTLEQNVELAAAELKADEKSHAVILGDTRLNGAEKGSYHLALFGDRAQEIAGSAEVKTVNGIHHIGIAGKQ

fHbp m001621 = target: T4, fHbp m001621 (Neisseria meningitidis, fHbp …, point mutant)
T4 chain: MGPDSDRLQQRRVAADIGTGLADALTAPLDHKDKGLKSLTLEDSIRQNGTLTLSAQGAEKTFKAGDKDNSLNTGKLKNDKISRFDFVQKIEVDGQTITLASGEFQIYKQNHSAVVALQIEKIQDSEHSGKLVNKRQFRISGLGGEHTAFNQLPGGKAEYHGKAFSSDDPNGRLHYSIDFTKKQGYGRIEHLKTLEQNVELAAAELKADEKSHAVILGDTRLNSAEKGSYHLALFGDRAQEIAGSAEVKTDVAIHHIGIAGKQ

fHbp m001037 = target: T5, fHbp m001037 (Neisseria meningitidis fHbp v3.28, …, point mutant)
T5 chain: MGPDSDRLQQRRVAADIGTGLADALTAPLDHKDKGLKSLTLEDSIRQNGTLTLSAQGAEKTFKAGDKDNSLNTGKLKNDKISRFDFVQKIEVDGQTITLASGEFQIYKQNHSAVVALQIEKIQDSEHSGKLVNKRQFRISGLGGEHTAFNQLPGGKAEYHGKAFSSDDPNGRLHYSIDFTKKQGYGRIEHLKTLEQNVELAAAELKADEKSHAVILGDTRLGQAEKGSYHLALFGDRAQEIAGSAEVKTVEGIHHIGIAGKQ

fHbp m001152 = target: T6, fHbp m001152 (Neisseria meningitidis fHbp v3.28-based …, point mutant)
T6 chain: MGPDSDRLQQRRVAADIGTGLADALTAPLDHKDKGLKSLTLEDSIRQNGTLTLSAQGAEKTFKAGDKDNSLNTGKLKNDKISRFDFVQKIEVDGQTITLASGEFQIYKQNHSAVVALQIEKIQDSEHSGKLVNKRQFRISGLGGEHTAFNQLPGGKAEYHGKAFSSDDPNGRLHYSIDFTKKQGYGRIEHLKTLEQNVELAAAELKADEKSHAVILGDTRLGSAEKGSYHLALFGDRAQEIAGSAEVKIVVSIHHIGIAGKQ

fHbp m001672 = target: T7, fHbp m001672 (Neisseria meningitidis, fHbp …, point mutant)
T7 chain: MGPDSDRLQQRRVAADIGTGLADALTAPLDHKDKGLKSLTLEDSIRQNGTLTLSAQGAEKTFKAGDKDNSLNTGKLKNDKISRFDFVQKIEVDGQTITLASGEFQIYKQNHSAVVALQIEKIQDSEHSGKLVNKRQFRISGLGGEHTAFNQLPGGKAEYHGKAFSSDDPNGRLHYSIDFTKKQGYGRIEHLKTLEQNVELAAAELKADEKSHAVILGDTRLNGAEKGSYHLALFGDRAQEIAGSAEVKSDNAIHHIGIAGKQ

fHbp m001524 = target: T8, fHbp m001524 (Neisseria meningitidis, fHbp …, point mutant)
T8 chain: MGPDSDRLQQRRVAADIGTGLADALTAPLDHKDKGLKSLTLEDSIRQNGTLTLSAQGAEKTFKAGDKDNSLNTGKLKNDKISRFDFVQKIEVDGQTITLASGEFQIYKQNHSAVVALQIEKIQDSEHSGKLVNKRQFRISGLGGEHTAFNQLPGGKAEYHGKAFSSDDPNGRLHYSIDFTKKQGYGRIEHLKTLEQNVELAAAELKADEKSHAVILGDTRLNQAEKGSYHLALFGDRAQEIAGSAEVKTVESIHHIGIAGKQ

fHbp m001661 = target: T9, fHbp m001661 (Neisseria meningitidis, fHbp …, point mutant)
T9 chain: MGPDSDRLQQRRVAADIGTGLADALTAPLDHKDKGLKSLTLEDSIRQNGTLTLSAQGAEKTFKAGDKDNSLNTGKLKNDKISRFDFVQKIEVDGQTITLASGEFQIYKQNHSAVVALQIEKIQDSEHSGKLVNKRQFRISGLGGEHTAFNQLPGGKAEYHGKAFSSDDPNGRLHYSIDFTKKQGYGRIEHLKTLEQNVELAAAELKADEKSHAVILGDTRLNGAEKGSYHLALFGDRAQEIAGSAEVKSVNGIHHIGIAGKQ

B1: mAb 1E6 (human) (antibody, V domains shown)
VH: EVQLVQSGAEVKKPGSSVKVSCKASGGTVIDYPITWVRQAPGQGLEWVGGFVPLFRTSNYGQKFQGRVTITADKSTSTASMELNSLTSEDTAIYYCARGDTAMGPFDYWGQGTLVTVSS
VL: SYVLTQPPSLSVAPGKTATLTCGGNNIAGKTVHWYQQRPGQAPVLVISYDSDRPSGIPERFSGSNSANTATLTISRVEAGDEADYYCQVWDRNSDHWVFGGGTKLTVL
notes: source: Expi293, purified (MabSelect SuRe, SEC); copies: 2 + 2
Kd (fHbp m001099): 0.841 nM | koff (fHbp m001099): 0.000237 s⁻¹ | kon (fHbp m001099): 281500 ± 1290 M⁻¹ s⁻¹ | Kd (fHbp m001207): 0.336 nM | koff (fHbp m001207): 0.000155 s⁻¹ | kon (fHbp m001207): 459700 ± 4080 M⁻¹ s⁻¹ | Kd (fHbp m001688): 0.937 nM | koff (fHbp m001688): 0.000258 s⁻¹ | kon (fHbp m001688): 275900 ± 1570 M⁻¹ s⁻¹ | Kd (fHbp m001621): 0.464 nM | koff (fHbp m001621): 0.000174 s⁻¹ | kon (fHbp m001621): 375400 ± 1900 M⁻¹ s⁻¹ | Kd (fHbp m001037): 0.349 nM | koff (fHbp m001037): 0.000144 s⁻¹ | kon (fHbp m001037): 413700 ± 3870 M⁻¹ s⁻¹ | Kd (fHbp m001152): 0.291 nM | koff (fHbp m001152): 0.000121 s⁻¹ | kon (fHbp m001152): 415300 ± 2380 M⁻¹ s⁻¹ | Kd (fHbp m001672): 1 nM | koff (fHbp m001672): 0.00032 s⁻¹ | kon (fHbp m001672): 320000 ± 1490 M⁻¹ s⁻¹ | Kd (fHbp m001524): 0.742 nM | koff (fHbp m001524): 0.000167 s⁻¹ | kon (fHbp m001524): 224700 ± 1680 M⁻¹ s⁻¹ | Kd (fHbp m001661): 0.678 nM | koff (fHbp m001661): 0.000193 s⁻¹ | kon (fHbp m001661): 285300 ± 2180 M⁻¹ s⁻¹

B2: chimeric antibody h12C1 (antibody, V domains shown)
VH: QVQLQESGPELVKPGASVKISCKASGYSFSDYNMSWVKQSNGKSLEWIGIIDPKYGTINYNQKFKGKATLTVDQASSTAYMQLNSLTSEDSAVYYCVRDYYGSSYFDYWGQGTTLTVSS
VL: DIVLTQSPSSIYASLGERVTLTCKASQDIHNYLNWFQQKPGKSPKTLIYRANRLVDGVPSRFSGGGSGQDYSLTISSLEFEDIGIYYCLQYDEFPPTFGGGTRLEIK
notes: also called humanized 12C1; source: Expi293, purified (MabSelect SuRe, SEC); copies: 2 + 2
Kd (fHbp m001099): 44 nM | koff (fHbp m001099): 0.0106 s⁻¹ | kon (fHbp m001099): 241000 ± 3220 M⁻¹ s⁻¹ | Kd (fHbp m001207): 80.8 nM | koff (fHbp m001207): 0.014 s⁻¹ | kon (fHbp m001207): 174000 ± 4810 M⁻¹ s⁻¹ | Kd (fHbp m001688): 53.8 nM | koff (fHbp m001688): 0.0106 s⁻¹ | kon (fHbp m001688): 197000 ± 3980 M⁻¹ s⁻¹ | Kd (fHbp m001621): 54 nM | koff (fHbp m001621): 0.0115 s⁻¹ | kon (fHbp m001621): 214000 ± 5580 M⁻¹ s⁻¹ | Kd (fHbp m001037): 0.893 nM | koff (fHbp m001037): 0.000269 s⁻¹ | kon (fHbp m001037): 300900 ± 2650 M⁻¹ s⁻¹ | Kd (fHbp m001152): 45.9 nM | koff (fHbp m001152): 0.00937 s⁻¹ | kon (fHbp m001152): 204000 ± 3360 M⁻¹ s⁻¹ | Kd (fHbp m001672): 117 nM | koff (fHbp m001672): 0.01791 ± 0.000106 s⁻¹ | kon (fHbp m001672): 154000 ± 3920 M⁻¹ s⁻¹ | Kd (fHbp m001524): 0.701 nM | koff (fHbp m001524): 0.000117 s⁻¹ | kon (fHbp m001524): 167000 ± 1950 M⁻¹ s⁻¹ | Kd (fHbp m001661): 167 nM | koff (fHbp m001661): 0.0207 ± 0.000141 s⁻¹ | kon (fHbp m001661): 124000 ± 4490 M⁻¹ s⁻¹
